We go through 3 molecules from US20130302346A1 (LEXICON PHARMACEUTICALS, published 2013).

The target in test [1] is T1, Human NOTUM R144A/R145A (human, UniProt Q6P988 20-496).
T1 construct: Alanine mutant, expressed and secreted after transient transfection
T1 sequence: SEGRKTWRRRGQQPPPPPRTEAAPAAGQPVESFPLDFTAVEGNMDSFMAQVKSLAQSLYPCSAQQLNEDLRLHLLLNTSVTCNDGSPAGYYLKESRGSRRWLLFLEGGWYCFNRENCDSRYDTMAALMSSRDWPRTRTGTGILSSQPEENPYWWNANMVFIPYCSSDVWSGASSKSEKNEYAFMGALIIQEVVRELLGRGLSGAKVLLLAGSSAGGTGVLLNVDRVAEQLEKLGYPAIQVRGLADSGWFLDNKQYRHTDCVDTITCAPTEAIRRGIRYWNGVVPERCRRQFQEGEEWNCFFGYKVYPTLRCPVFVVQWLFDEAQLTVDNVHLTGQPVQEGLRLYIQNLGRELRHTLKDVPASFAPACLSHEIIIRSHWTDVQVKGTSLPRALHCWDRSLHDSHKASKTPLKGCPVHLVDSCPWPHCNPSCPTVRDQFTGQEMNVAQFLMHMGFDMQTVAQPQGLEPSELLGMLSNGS
The experiment in a line: ELISA.

Test [2] deals with T2, Human NOTUM D141S (human, UniProt Q6P988 20-496).
T2 construct: Point mutant made by transient transfection
T2 sequence: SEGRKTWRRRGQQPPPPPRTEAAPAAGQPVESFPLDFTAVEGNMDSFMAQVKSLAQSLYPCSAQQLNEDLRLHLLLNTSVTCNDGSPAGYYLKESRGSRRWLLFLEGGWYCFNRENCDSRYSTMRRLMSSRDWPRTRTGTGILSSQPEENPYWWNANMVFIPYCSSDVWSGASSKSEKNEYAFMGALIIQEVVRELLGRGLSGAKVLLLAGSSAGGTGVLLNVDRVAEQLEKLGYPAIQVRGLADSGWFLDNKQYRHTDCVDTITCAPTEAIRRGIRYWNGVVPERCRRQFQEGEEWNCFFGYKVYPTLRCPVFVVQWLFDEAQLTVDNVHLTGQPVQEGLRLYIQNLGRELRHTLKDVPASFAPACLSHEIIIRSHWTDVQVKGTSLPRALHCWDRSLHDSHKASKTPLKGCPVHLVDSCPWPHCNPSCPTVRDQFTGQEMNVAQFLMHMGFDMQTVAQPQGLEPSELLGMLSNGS
The experiment in a line: ELISA. On the technique in general: ELISA stands for enzyme-linked immunosorbent assay.

The target in test [3] is T3, Guinea pig NOTUM (guinea pig, UniProt Q6P988 21-496 (human entry)).
T3 construct: Expressed by transient transfection
T3 chain: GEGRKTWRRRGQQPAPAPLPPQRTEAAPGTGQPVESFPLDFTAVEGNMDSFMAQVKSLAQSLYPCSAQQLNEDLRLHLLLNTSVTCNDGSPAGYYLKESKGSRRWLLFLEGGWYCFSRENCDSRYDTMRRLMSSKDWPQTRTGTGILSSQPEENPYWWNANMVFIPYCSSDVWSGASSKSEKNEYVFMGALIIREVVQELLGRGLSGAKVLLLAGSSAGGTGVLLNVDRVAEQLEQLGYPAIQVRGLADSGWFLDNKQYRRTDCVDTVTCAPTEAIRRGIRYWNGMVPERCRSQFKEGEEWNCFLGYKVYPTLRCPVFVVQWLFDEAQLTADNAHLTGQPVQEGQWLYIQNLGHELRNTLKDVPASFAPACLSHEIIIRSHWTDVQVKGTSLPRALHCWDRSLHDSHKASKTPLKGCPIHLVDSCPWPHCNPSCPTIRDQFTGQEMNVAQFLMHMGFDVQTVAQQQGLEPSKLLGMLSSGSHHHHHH
In words: ELISA.

The target of test [4] is T4, H(S232A).
T4 construct: The catalytic triad serine is drawn as A on the sheet; also called Human NOTUM S232A
T4 single chain: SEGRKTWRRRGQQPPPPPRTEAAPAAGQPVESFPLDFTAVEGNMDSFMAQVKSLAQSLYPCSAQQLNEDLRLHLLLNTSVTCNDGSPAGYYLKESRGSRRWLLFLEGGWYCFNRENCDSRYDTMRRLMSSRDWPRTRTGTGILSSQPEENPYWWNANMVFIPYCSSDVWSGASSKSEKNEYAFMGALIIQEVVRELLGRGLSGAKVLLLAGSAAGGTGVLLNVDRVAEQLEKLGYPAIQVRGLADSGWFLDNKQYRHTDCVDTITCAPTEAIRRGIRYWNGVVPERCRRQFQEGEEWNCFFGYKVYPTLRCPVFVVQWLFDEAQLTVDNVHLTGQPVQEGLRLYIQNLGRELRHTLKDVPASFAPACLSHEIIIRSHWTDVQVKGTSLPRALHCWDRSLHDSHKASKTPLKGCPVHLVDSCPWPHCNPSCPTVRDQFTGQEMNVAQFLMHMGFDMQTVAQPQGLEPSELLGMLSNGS
The experiment in a line: ELISA on conditioned medium of HEK293F transfected with the NOTUM construct (Example 6.7). The text has this: (§1) The sequences of those proteins are shown in Section 7 (Table of Sequences). The conditioned media were used in ELISA format to determine antibody specificity. […] Within this region, mouse and human NOTUM differ at five positions (R115K, D141S. R150K, R154H, and Y171H, based on the human sequence numbering). Human NOTUM point mutants were generated by transient transfection of constructs expressing human NOTUM with the mouse amino acid at each of these five positions and the point mutants were all shown to be functional in the OPTS assay.

For test [5], the target named is T5, H-M-H.
T5 construct: Drawn on the sheet as human up to the M177 line, a mouse middle segment, then a human C-terminal part; Conditioned medium from transfected HEK293F; also called Human-mouse-human chimeric NOTUM
T5 single chain: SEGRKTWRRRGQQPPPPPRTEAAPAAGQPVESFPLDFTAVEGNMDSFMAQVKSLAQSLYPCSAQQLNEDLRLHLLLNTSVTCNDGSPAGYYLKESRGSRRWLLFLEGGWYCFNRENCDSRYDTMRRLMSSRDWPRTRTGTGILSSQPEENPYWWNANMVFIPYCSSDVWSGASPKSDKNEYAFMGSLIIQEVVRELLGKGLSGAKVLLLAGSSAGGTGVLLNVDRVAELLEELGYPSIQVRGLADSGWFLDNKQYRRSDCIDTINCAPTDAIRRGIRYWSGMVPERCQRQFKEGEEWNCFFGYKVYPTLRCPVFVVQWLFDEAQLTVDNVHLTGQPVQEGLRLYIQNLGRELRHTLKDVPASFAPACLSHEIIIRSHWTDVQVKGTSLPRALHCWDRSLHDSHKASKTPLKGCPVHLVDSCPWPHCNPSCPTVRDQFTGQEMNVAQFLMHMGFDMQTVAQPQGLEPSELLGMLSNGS
The description is as above.
Description: as §1

B1: MAb 1.802 (antibody, V domains shown)
VH: EVQLVESGGGLVKPGGSLKLSCAASGFTFSDYGMHWFRQAPEKGLEWVAYISSGSRTVYYADTVKGRFTISRDNAKNTLSLQMTSLRSEDTAMYYCARKHYNGGYFDVWGTGTTVTVSS
VL: DIVLTQSPASLAVSLGQRATISCRASKIVSTSGYSYMHWYQQKPGQPPKLLIYLASNLESGVPARFSGSGSGTDFTLNIHPVEEEDAATYYCQHSRELPPTFGSGTKLEIKR
notes: Mouse monoclonal antibody from Campaign 1 (raised against human NOTUM), IgG1
With B1, the binding result in test [1] is reported as “no binding”; in test [2], “no binding”; in test [3] it was “binds”; in test [4], “binds”; in test [5], “binds”.

B2: MAb 1.846 (antibody, IgG2b, V domains shown)
VH: EVQLVESGGDLVKPGGSLKLSCAASGFTFSDYGMHWLRQAPEKGLEWVAYISSGSTTLSYANTMKGRFTISRDNAKKTLSLQMTSLRSEDTAIYYCARKNYNGGYFDVWGTGTTVTVSS
VL: DIVLTQSPASLVVSLGQRATISCRASKSVSESGYSYMHWYQQKPGQPPKLLIYLASNLESGVPARFSGSGSGTDFTLNIHPVEEGDATTYYCQHSRVLPPTFGSGTKLEIKR
notes: Mouse monoclonal antibody from Campaign 1, IgG2b
Regarding B2, the binding result is reported as “no binding” in test [1]; “no binding” in test [2]; “binds” in test [3]; “binds” in test [4]; “binds” in test [5].

B3: MAb 1.815 (antibody, IgG1, V domains shown)
VH: DVQLLESGGGLVQPGGSRKLSCAASGFTFSDFGMHWVRQAPEKGLEWVAYSSSGGTTVYYADTVKGRLTLSRDNSKNTLFLEMTSLRSEDTAMYYCARASYDGGYFDCWGQGTSLTVSS
VL: DIVLTQSPASLAVSLGQRATISCRASKSVSTSGYSYIHWYQQKPGQPPKLLIYLASDLESGVPARFSGSGSGAAFTLNIHPVEEEDAATYYCHHSRELPFTFGSGTKLEIKR
notes: Mouse monoclonal antibody from Campaign 1, IgG1
Take B3: the binding result in test [1] is “no binding”; in test [2], “no binding”; in test [3], “binds”; in test [4], “binds”; in test [5], “binds”.
